Test results as given in patent publication US20240228986A1, “ENGINEERED CELLS, ENZYMES, AND METHODS FOR PRODUCING CANNABINOIDS” (priority 2021, published 2024).

Key:
olivetolic acid [1] = assay: Linkers for GPS1.1-MPT4 fusions, in vivo assay (Example 6); format: cell-based, Yarrowia; details: 1 mM olivetolic acid, 72 h quench
Method: As described in detail below, plasmids pCL-SE-0380 (MPT4), pCL-SE-0406, pCL-SE-0435, and pCL-SE-0437 were transformed into strain sCL-SE-0128. Four separate colonies per transformation were precultured for 24 h in YNB containing glycerol (2%), casamino acids (0.5%), and MES (100 mM pH 6.5). Pre-culture was used to inoculate assay medium comprised of YNB containing glycerol (2%), casamino acids (0.5%), MES (100 mM pH 6.5), and olivetolic acid (1 mM). Cultures were quenched after 72 h total growth by mixing with equal volume of EtOH. Enzymes produced CBGA and FCBGA. Averages and standard deviations were calculated from replicates.
However, sCL-SE-0128 expresses HMGR and GPS1.1 to increase intracellular GPP levels for prenylation of OA to CBGA. The plasmids that were transformed contain either a gene expressing a prenyl-transferase (pCL-SE-0380 (MPT4)) or a gene expressing a fusion between GPS1.1 and a prenyl-transferase with different linker sequences.
Overnight YPD (10 g/L yeast extract, 20 g/L peptone, 2% dextrose) cultures were inoculated from glycerol stocks of the appropriate strain and grown at 30° C. with 250 rpm shaking. Once cultures had reached an OD600 of 4-6, cultures were centrifuged at 500×g for 5 min, supernatants were discarded, and cell pellets were resuspended in equal volume of water. Resuspended cells were centrifuged at 500×g for 5 min, supernatants were discarded, and cells were resuspended in a volume (75 μL×OD×Vculture) of transformation cocktail (45% PEG-400, 0.1 M LiAc, 0.1 M DTT, and 25 ug/100 μL SS Salmon Sperm DNA). For each transformation, >1 μg of plasmid DNA was added to 55 μL cells/transformation cocktail and vortexed for 2 s. Transformations were incubated at 39° C. for 1 h with 250 rpm shaking. Transformations were resuspended in 750 μL YPD with 1 M sorbitol and recovered at 30° C. overnight with 250 rpm shaking. The next day, transformations were centrifuged at 500×g for 5 min, supernatants were discarded, and cell pellets were resuspended in 750 YPD. Resuspended transformations were plated on YPD with appropriate selection or YNBD (6.71 g/L yeast nitrogen base+nitrogen, 0.5% casamino acids, 2% dextrose) agar plates and grown at 30° C. for 2 days. Individual colonies were patched onto YPD plates with appropriate selection or YNBD plates and grown at 30° C. overnight. Patches were used to inoculate 0.5 mL YPD with appropriate selection or YNBD precultures in 96 w blocks and grown at 30° C. for 24-48 h with 1000 rpm shaking. For assays, 0.5 mL YPD with appropriate selection or YNBD cultures containing substrate were inoculated with 2 μL from precultures and grown at 30° C. for 2-4 days with 1000 rpm shaking with 2% glucose added every 24 h. Assay cultures were quenched by addition of 0.5 mL ethanol with 0.2% formic acid and 0.5 mg/mL pentyl-benzoic acid. Precipitates were pelleted by centrifuging at 4600×g for 10 min and then 200 μL was transferred to fresh plates, sealed, and analyzed via HPLC.
All samples were quenched with equal volume of EtOH containing 0.2 mg/mL internal standard (3,5-Diisopropyl-2-hydroxybenzoic acid CAS #2215-21-6) centrifuged, and clarified solutions were analyzed by HPLC-MS
• Column: 2.1×50 mm COSMOCORE PBr (Nacalai USA, Inc.) • Mobile Phase: A; 0.1% formic acid in water, B; 0.1% formic acid in acetonitrile • Flow: 0.45 mL/min • Temp: % 50 Celsius • Gradient: 20%B at 0 min, 70%B at 2.3 min, 89% B at 4.2 min, 20% B at 4.3 min, 20%B at 6 min

olivetolic acid [2] = assay: MPT fusions with GPS1.1 vs unfused MPTs, OA feed (Example 8, Table 9); format: cell-based, Yarrowia; details: 2 mM olivetolic acid, 48 h quench
Outline: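 Yeast strain sCL-SE-0128 carrying MPT or GPS1.1–MPT fusion plasmids, precultured 48 h in YNB/2% glucose/0.5% casamino acids/100 mM MES pH 6.5. Assay medium was the same plus 2 mM olivetolic acid, 30 °C. Cultures were ethanol-quenched at 48 h total growth, and CBGA and FCBGA were measured by HPLC-MS with internal standard; values are replicate means ± SD.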

[3] = 2% glycerol, strain sCL-SE-0128

B1: GPS1.1-F11-MPT4: fusion of GPS1.1 and MPT4 via F11 linker, SEQ ID NO: 16 (protein)
chain: MSKAKFESVFPRISEELVQLLRDEGLPQDAVQWFSDSLQYNCVGGKLNRGLSVVDTYQLLTGKKELDDEEYYRLALLGWLIELLQAFWLVSDDIMDESKTRRGQPCWYLKPKVGMIAIWDAFMLESGIYILLKKHFRQEKYYIDLVELFHDISFKTELGQLVDLLTAPEDEVDLNRFSLDKHSFIVRYKTAYYSFYLPVVLAMYVAGITNPKDLQQAMDVLIPLGEYFQVQDDYLDNFGDPEFIGKIGTDIQDNKCSWLVNKALQKATPEQRQILEDNYGVKDKSKELVIKKLYDDMKIEQDYLDYEEEVVGDIKKKIEQVDESRGFKKEVLNAFLAKIYKRQKGGAEAAAKEAAAKAGGSGGGSGGGGSGGSGGGGSGGGGSMSDNSIATKILNFGHTCWKLQRPYVVKGMISIACGLFGRELFNNRHLFSWGLMWKAFFALVPILSFNFFAAIMNQIYDVDIDRINKPDLPLVSGEMSIETAWILSIIVALTGLIVTIKLKSAPLFVFIYIFGIFAGFAYSVPPIRWKQYPFTNFLITISSHVGLAFTSYSATTSALGLPFVWRPAFSFIIAFMTVMGMTIAFAKDISDIEGDAKYGVSTVATKLGARNMTFVVSGVLLLNYLVSISIGIIWPQVFKSNIMILSHAILAFCLIFQTRELALANYASAPSRQFFEFIWLLYYAEYFVYVFI
modifications: GPS1.1-F11-MPT4, geranyl diphosphate synthase, membrane-bound prenyltransferase fusion protein
B1 showed a CBGA (olivetolic acid [1]; [3]) of 393 ± 41 µM, an FCBGA (olivetolic acid [1]; [3]) of 60 ± 5 µM and a CBGA/FCBGA (olivetolic acid [1]; product ratio) of 6.6. For the same molecule, the CBGA (olivetolic acid [2]; 2% glucose, strain sCL-SE-0128) was 200 ± 3 µM, the FCBGA (olivetolic acid [2]; 2% glucose, strain sCL-SE-0128) was 24 ± 1 µM and the CBGA/FCBGA (olivetolic acid [2]; product ratio) was 8.2.
